The values that follow come from patent publication US20060233706A1, “Marked peptides having affinity for a phospholipid and uses” (COMMISSARIAT A L'ENERGIE, priority 2002, published 2006).

The conditions of series [1]: prior art observation; cited from earlier work.
Series [2] in a line: Labelling of the kidney in the same rats (fluorescence microscopy of kidney sections). The class given is in vivo. Particulars: 200 μg into the jugular vein, 60 minutes, labelling linked to partial elimination of the products. The method, then:
Briefly, four rats (300 g each) were anaesthetized, intubated and ventilated. Myocardial ischaemia was triggered by a transient occlusion of the coronary artery. After 30 minutes of occlusion, the coronary artery was reperfused for one hour.
At the end of the reperfusion period, the AFIM-fluorescein peptides of Example 6 were injected into the jugular vein in an amount of 200 μg of peptide for each of two of the rats in a total volume of 1 ml.
By way of comparison, 200 μg of annexin 5-fluorescein (compounds of the prior art) were injected under the same conditions for each of the other two rats in a total volume of 1 ml.
The rats were sacrificed after 60 minutes.
Five organs were stored for this study: the heart, the lung, the kidney, the liver and the brain. They were washed and rinsed in the presence of formalin. […]
A few sections were stained with haematoxylin. The sections were examined under a fluorescence microscope and the adjacent sections stained with haematoxylin were examined with a visible light microscope. The sections stained with haematoxylin (labelled H1 and H2 respectively in the appended FIGS. 1 and 2) allow visualisation of the architecture of the tissues and fluorescence microscopy to detect the labelling with AFIM-fluorescein (AFIM-F) or with annexin 5-fluorescein (A5-F).

For “annexin 5: prior art annexin protein that binds anionic phospholipids in a calcium-dependent manner”, the Toxicity result in series [1] is given as “renal toxicity”. Besides, the “Labelling of the entire renal tissue” value in series [2] is “strongly labelled”.
